In one assay the target is T1, Cynomolgus CEACAM5 (cynomolgus monkey).
T1 construct: also called cyno CEACAM5
Description: SPR, anti-hFc capture, 37C, pH 7.4. The procedure:
(§1) To determine the affinity and cross-reactivity of CEACAM5 TriNKET molecules, AB0411, AB0466, or AB0621 TriNKETs were captured using an anti-human Fc capture antibody (Cytiva, #BR100839) immobilized onto a Biacore CM5 standard surface sensor chip following manufacturer instructions. Human or cynomolgus CEACAM5 were titrated over captured AB0411, AB0466, and AB0621 as 2-fold serial dilutions starting from 300 nM. Association was monitored for 300 sec and dissociation was monitored for 600 sec. The assay was run at 37° C. at pH 7.4 and 6.0. The surface of the CM5 chip was regenerated with 10 mM glycine pH 1.5 for 20 sec at 100 μL/min.
Background: Surface plasmon resonance follows binding to a sensor surface in real time, without labels.

A further assay has as its target T2, Human CEACAM5 (K398) (human, UniProt P06731 35-685, limits assumed).
T2 construct: also called K398 allele
T2 sequence: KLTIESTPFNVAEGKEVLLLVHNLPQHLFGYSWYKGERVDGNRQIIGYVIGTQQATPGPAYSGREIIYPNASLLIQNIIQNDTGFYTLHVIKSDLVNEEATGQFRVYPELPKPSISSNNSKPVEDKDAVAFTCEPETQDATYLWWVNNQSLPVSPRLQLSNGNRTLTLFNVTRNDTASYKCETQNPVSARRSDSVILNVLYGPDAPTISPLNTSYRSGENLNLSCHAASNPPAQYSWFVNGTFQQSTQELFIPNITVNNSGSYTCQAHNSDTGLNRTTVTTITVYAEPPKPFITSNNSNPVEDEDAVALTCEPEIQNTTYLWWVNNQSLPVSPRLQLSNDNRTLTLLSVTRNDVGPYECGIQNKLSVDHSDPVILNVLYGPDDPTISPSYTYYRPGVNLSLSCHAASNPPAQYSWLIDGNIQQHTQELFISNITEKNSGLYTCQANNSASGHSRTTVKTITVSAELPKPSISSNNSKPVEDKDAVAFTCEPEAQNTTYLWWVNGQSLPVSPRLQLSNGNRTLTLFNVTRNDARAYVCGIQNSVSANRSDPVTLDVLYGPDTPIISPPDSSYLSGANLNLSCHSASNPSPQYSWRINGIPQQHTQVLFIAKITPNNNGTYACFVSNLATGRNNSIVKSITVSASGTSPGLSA
Put plainly: SPR, anti-hFc capture, 37C, pH 7.4. The procedure:
as §1

Here are results for two molecules from patent publication US20240124607A1 (Merck Sharp & Dohme, published 2024).

B1: AB0621 F3' CEACAM5 TriNKET (bispecific antibody, human IgG1, kappa)
chain: DIVMTQSPDSLAVSLGERATINCKSSHSLLYGNFQNNYLAWYQQKPGQPPKLLIYWASTRESGVPDRFSGSGSGTDFTLTISSLQAEDVAVYYCQQYYSYPYTFGCGTKLEIKGGGGSGGGGSGGGGSGGGGSQVQLVQSGAEVKKPGASVKVSCKASGYTFTAYTIHWVRQAPGQCLEWMGYINPSSGYTEYNQKFKDRTTLTADTSISTAYMELSRLRSDDTAVYYCTREGGLLWFDYWGQGTLVTVSSGSDKTHTCPPCPAPELLGGPSVFLFPPKPKDTLMISRTPEVTCVVVDVSHEDPEVKFNWYVDGVEVHNAKTKPREEQYNSTYRVVSVLTVLHQDWLNGKEYKCKVSNKALPAPIEKTISKAKGQPREPRVYTLPPCRDELTKNQVSLTCLVKGFYPSDIAVEWESNGQPENNYKTTPPVLVSDGSFTLYSKLTVDKSRWQQGNVFSCSVMHEALHNHYTQKSLSLSPG
heavy: EVQLVESGGGLVKPGGSLRLSCAASGFTFSSYSMNWVRQAPGKGLEWVSSISSSSSYIYYADSVKGRFTISRDNAKNSLYLQMNSLRAEDTAVYYCARGAPIGAAAGWFDPWGQGTLVTVSSASTKGPSVFPLAPSSKSTSGGTAALGCLVKDYFPEPVTVSWNSGALTSGVHTFPAVLQSSGLYSLSSVVTVPSSSLGTQTYICNVNHKPSNTKVDKKVEPKSCDKTHTCPPCPAPELLGGPSVFLFPPKPKDTLMISRTPEVTCVVVDVSHEDPEVKFNWYVDGVEVHNAKTKPREEQYNSTYRVVSVLTVLHQDWLNGKEYKCKVSNKALPAPIEKTISKAKGQPREPQVCTLPPSRDELTENQVSLTCLVKGFYPSDIAVEWESNGQPENNYKTTPPVLDSDGSFFLYSWLTVDKSRWQQGNVFSCSVMHEALHNHYTQKSLSLSPG
light: DIQMTQSPSSVSASVGDRVTITCRASQGISSWLAWYQQKPGKAPKLLIYAASSLQSGVPSRFSGSGSGTDFTLTISSLQPEDFATYYCQQGVSFPRTFGGGTKVEIKRTVAAPSVFIFPPSDEQLKSGTASVVCLLNNFYPREAKVQWKVDNALQSGNSQESVTEQDSKDSTYSLSSTLTLSKADYEKHKVYACEVTHQGLSSPVTKSFNRGEC
B1: in the assay with Cynomolgus CEACAM5, the affinity, expressed as Kd, was 14 nM and the kon (in general, the second-order rate constant of association) is 61000 M⁻¹ s⁻¹.

B2: AB0264 F3' CEACAM5 TriNKET (bispecific antibody, human IgG1, kappa)
chain: DIVMTQSPDSLAVSLGERATINCKSSHSLLYGNFQNNYLAWYQQKPGQPPKLLIYWASTRESGVPDRFSGSGSGTDFTLTISSLQAEDVAVYYCQQYYSYPYTFGCGTKLEIKGGGGSGGGGSGGGGSGGGGSQVQLVQSGAEVKKPGASVKVSCKASGYTFTAYTIHWVRQAPGQCLEWMGYINPSSGYTEYNQKFKDRTTLTADTSIPTAYMELSRLRSDDTAVYYCTREGGLLWFDYWGQGTLVTVSSGSDKTHTCPPCPAPELLGGPSVFLFPPKPKDTLMISRTPEVTCVVVDVSHEDPEVKFNWYVDGVEVHNAKTKPREEQYNSTYRVVSVLTVLHQDWLNGKEYKCKVSNKALPAPIEKTISKAKGQPREPRVYTLPPCRDELTKNQVSLTCLVKGFYPSDIAVEWESNGQPENNYKTTPPVLVSDGSFTLYSKLTVDKSRWQQGNVFSCSVMHEALHNHYTQKSLSLSPG
heavy: EVQLVESGGGLVKPGGSLRLSCAASGFTFSSYSMNWVRQAPGKGLEWVSSISSSSSYIYYADSVKGRFTISRDNAKNSLYLQMNSLRAEDTAVYYCARGAPIGAAAGWFDPWGQGTLVTVSSASTKGPSVFPLAPSSKSTSGGTAALGCLVKDYFPEPVTVSWNSGALTSGVHTFPAVLQSSGLYSLSSVVTVPSSSLGTQTYICNVNHKPSNTKVDKKVEPKSCDKTHTCPPCPAPELLGGPSVFLFPPKPKDTLMISRTPEVTCVVVDVSHEDPEVKFNWYVDGVEVHNAKTKPREEQYNSTYRVVSVLTVLHQDWLNGKEYKCKVSNKALPAPIEKTISKAKGQPREPQVCTLPPSRDELTENQVSLTCLVKGFYPSDIAVEWESNGQPENNYKTTPPVLDSDGSFFLYSWLTVDKSRWQQGNVFSCSVMHEALHNHYTQKSLSLSPG
light: DIQMTQSPSSVSASVGDRVTITCRASQGISSWLAWYQQKPGKAPKLLIYAASSLQSGVPSRFSGSGSGTDFTLTISSLQPEDFATYYCQQGVSFPRTFGGGTKVEIKRTVAAPSVFIFPPSDEQLKSGTASVVCLLNNFYPREAKVQWKVDNALQSGNSQESVTEQDSKDSTYSLSSTLTLSKADYEKHKVYACEVTHQGLSSPVTKSFNRGEC
As for B2, in the assay with Human CEACAM5 (K398), binding was put at a Kd of 13 nM and the kon worked out at 91000 M⁻¹ s⁻¹.
